Target: complement C1q (human) (UniProt P02745)
Test: fluorescence polarisation

Sequence of UniProt P02745 (P02745 23-245, chain 1 of 3): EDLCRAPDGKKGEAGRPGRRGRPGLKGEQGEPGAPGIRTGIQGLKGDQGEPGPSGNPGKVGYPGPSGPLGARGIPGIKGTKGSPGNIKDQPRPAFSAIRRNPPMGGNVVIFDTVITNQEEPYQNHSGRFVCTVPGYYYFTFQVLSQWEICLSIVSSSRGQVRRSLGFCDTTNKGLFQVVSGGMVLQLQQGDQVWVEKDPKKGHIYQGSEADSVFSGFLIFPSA
Sequence of UniProt P02745 (P02746 28-253, chain 2 of 3, further chain): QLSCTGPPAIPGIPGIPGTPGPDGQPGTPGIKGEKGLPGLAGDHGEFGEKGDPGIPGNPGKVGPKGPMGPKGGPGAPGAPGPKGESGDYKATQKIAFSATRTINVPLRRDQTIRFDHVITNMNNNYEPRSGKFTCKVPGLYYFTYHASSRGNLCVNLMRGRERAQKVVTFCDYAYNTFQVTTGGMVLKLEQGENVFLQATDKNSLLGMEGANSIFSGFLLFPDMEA
Sequence of UniProt P02745 (P02747 29-245, chain 3 of 3, further chain): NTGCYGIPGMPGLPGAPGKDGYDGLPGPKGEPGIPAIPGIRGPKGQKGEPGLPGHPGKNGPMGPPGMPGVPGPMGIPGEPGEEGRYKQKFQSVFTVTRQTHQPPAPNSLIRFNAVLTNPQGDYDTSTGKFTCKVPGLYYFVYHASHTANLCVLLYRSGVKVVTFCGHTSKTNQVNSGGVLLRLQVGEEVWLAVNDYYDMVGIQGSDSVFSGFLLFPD

How did the change in anisotropy (Δr) turn out when “modified C-reactive protein (mCRP) (from UniProt P02741 19-224) (natural protein)” was run?
Its change in anisotropy (Δr) is 0.081.
